Consider two molecules from patent publication US20210324074A1 (US Dept. of Health and Human Services, published 2021).

For one test, the target named is T1, CD22 (UniProt P20273 20-687, limits assumed).
T1 construct: also called B cell antigen CD22
Kind of test: not stated (overview statement); overview statement, assay not stated.

In test [1] the target is T2, CD22 ECD-Fc fusion protein (UniProt P20273 20-687, limits assumed).
T2 construct: extracellular domain; also called CD22-Fc; not shown: Fc part
Put plainly: SPR, BIAcore X100; CD22 ECD-Fc amine-coupled to the chip, scFv as analyte (0.32-200 nM per paragraph 213), 1:1 fit. The method, then: (§1) FIGS. 13A-13F: (FIG. 13A) BIAcore analysis was used to evaluate association and dissociation curves of various scFvs. […] (FIGS. 13C-13F) Mice were injected with CD22^lo or Nalm6 leukemia on Day 0. […] Bone marrow cells were stained for flow cytometry and analyzed on Fortessa flow machine. Statistics were calculated using unpaired t-test (** p<0.0021).
(§2) Purified CD22 ECD-Fc fusion protein was diluted in 10 mM acetic acid buffer, pH 5.0, immobilized on a CMS biosensor chip for 1400 RU using an amine coupling kit. The running buffer was HBS-EP (10 mM HEPES, pH 7.4, 150 mM NaCl, 3 mM EDTA, 0.05% surfactant P20). The scFvs diluted in running buffer were allowed to flow through the cells at concentrations 0.32, 1.6, 8, 40 and 200 nM. After a 10-minute of dissociation, the chip was regenerated with 10 mM acetic acid, pH 4.0, 0.5 M NaCl. The data were fitted with 1:1 binding model and the dissociation rate constant was estimated with the BIAevaluation software.

Test [2] deals with T2, CD22 ECD-Fc fusion protein. Kind of test: SPR, BIAcore X100; CD22 ECD-Fc amine-coupled to the chip, scFv as analyte (0.32-200 nM per paragraph 213), 1:1 fit; calculated from a kd that legend paragraph 27 says is below the instrument's limit. The method, then: as §1, §2
For test [3], the target named is T2, CD22 ECD-Fc fusion protein. Kind of test: SPR, BIAcore X100, CD22 ECD-Fc immobilized, scFv in flow. The method, then:
as §1, §2
On the technique in general: In SPR one partner is held on a chip, and binding of the other changes the refractive index at the surface.

For test [4], the target named is T2, CD22 ECD-Fc fusion protein. Kind of test: SPR, BIAcore X100; CD22 ECD-Fc amine-coupled to the chip, scFv as analyte (0.32-200 nM per paragraph 213), 1:1 fit; legend paragraph 27 says this kd is below what the instrument can measure (1.0E-5 1/s). As for the experimental part:
as §1, §2

In test [5] the target is T2, CD22 ECD-Fc fusion protein. Put plainly: SPR, BIAcore X100, CD22 ECD-Fc immobilized, scFv in flow. The association rate appears only as the divisor in the KD calculation, and its unit is not printed. The method, then:
as §1, §2

The target in test [6] is T2, CD22 ECD-Fc fusion protein. Put plainly: SPR, BIAcore X100, CD22 ECD-Fc immobilized, scFv in flow, 1:1 model. The fitted value is below the instrument's limit.; fitted kd, below the instrument's limit. The method, then: as §1, §2

B1: affinity matured human monoclonal antibody m971-L7 (antibody, V domains shown)
VH: QVQLQQSGPGMVKPSQTLSLTCAISGDSVSSNSVAWNWIRQSPSRGLEWLGRTYYRSTWYNDYAVSMKSRITINPDTNKNQFSLQLNSVTPEDTAVYYCAREVTGDLEDAFDIWGQGTMVTVSS
VL: DIQMIQSPSSLSASVGDRVTITCRASQTIWSYLNWYRQRPGEAPNLLIYAASSLQSGVPSRFSGRGSGTDFTLTISSLQAEDFATYYCQQSYSIPQTFGQGTKLEIK
notes: Named as 'antibody' in the overview
Broadly, the Kd is the constant that tells how readily two partners part at equilibrium. As for B1, the Kd in the test with CD22 was less than 50 pM.

B2: m971-L7 scFv (scFv)
scFv: QVQLQQSGPGMVKPSQTLSLTCAISGDSVSSNSVAWNWIRQSPSRGLEWLGRTYYRSTWYNDYAVSMKSRITINPDTNKNQFSLQLNSVTPEDTAVYYCAREVTGDLEDAFDIWGQGTMVTVSSGGGGSGGGGSGGGGSDIQMIQSPSSLSASVGDRVTITCRASQTIWSYLNWYRQRPGEAPNLLIYAASSLQSGVPSRFSGRGSGTDFTLTISSLQAEDFATYYCQQSYSIPQTFGQGTKLEIK
notes: Soluble scFv run over immobilized CD22 ECD-Fc on a BIAcore X100; also called matured variant L7
The kon is the second-order rate constant of association. The koff is the rate constant with which the complex falls apart. In the case of B2, the kon in test [1] was 563000 M⁻¹ s⁻¹; in test [5], 560000 M⁻¹ s⁻¹. Further, the values for the Kd in test [2] and in test [3] were 2.06 pM and less than 18 pM, respectively. Moreover, in test [3], the “fold higher affinity than original scFv m971” value was greater than 1000 fold. For the same molecule, the figures for the koff in test [4] and in test [6] were 1.16e-06 s⁻¹ and less than 1e-05 s⁻¹, respectively.
